Assay results taken from article PMC10844748.

Biological target: S. cerevisiae translation elongation factor 1A (eEF1A), TEF1-encoded, purified from a ΔEFM4 strain (S. cerevisiae) (UniProt P02994)
Chain of UniProt P02994 (P02994 whole entry, stated change not applied): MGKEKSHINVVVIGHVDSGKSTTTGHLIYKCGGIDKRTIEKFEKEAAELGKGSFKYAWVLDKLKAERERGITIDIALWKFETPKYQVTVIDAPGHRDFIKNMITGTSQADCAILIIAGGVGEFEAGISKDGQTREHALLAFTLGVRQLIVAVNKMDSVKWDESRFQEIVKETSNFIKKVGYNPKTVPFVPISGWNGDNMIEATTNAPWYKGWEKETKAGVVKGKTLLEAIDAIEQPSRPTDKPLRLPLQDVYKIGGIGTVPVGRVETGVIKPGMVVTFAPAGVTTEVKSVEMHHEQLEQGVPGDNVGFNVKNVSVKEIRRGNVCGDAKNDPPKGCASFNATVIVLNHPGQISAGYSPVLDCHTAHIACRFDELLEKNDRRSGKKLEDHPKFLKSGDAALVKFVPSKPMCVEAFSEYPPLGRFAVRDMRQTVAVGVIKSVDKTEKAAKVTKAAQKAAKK

B1: Efm4 F210A/F212A double mutant (enzyme)
chain: FRRNPQDTGDCWFSDSDAEQKMIDFLVDNIGAYRISENASVVDLGTGNGHMLFELHQTEFQGKLVGIDYSEESVKLASNIAEATGVDNFISFQQADIFSGDWKPGKYDIVLDKGTLDAISLSGMKINGKLDVVDVYAGVVERILKKDGIFLITSCNFTQDELVKIIETDNLKMWKTIKYPVAQAGGVQGATICSVAFVKQN
Work on B1 yielded an in vitro methylation of eEF1A K316 (Efm4 3 μM, eEF1A 2 μM, AdoMet, 30 min, 30 °C; LC-MS/MS) of under 20%.
